Where “and” joins values, the source holds several entries; their conditions need not be identical. Equal values may be shown once.
Columns and labels:
[1] = biological target: T1, agglutinin-like sequence protein 3 (full-length Als3) on S. cerevisiae cells (C. albicans, UniProt Q59L12 18-1134); assay: whole-cell binding assay (biotin-labeled protein, SA-HRP/TMB); S. cerevisiae cells presenting the adhesin (3 × 10^7 cells per tube); biotin-labeled CaGAPDH 0–400 nM, 1 h at 37 °C; one-site specific binding model, estimated dissociation constants; conditions: one partner purified
T1 construct: source: S. cerevisiae, overexpressed and surface-presented, on cells
T1 sequence: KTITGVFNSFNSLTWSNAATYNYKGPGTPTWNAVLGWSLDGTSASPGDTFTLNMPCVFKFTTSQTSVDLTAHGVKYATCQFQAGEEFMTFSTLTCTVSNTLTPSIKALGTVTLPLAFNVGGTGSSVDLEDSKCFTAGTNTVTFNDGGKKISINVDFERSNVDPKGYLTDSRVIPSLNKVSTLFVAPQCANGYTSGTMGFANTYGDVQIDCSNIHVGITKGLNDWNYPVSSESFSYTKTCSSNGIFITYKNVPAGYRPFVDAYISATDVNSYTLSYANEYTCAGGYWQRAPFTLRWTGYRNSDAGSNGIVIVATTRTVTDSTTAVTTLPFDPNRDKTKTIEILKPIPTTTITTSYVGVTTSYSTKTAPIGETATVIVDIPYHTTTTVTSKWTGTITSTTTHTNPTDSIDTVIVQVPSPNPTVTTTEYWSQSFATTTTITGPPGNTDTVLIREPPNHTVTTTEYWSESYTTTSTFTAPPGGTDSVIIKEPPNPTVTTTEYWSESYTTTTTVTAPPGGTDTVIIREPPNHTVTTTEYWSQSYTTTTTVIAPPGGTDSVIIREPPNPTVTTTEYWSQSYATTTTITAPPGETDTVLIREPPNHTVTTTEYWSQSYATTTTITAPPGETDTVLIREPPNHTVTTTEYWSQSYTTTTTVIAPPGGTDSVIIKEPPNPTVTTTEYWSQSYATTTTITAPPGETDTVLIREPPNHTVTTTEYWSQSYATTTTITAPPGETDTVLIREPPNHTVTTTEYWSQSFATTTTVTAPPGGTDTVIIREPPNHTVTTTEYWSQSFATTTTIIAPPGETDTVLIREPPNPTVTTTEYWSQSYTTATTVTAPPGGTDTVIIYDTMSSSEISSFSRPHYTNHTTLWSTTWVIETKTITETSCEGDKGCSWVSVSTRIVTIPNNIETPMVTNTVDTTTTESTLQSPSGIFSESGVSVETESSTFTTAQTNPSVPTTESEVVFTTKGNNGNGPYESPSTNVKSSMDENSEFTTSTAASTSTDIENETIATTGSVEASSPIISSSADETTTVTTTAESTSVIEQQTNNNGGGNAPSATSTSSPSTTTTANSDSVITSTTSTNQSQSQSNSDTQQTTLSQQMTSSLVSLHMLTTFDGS

[2] = biological target: T2, Hwp1 (hyphal wall protein 1) on S. cerevisiae cells (C. albicans, UniProt P46593 28-613); assay: as above; conditions: one partner purified
T2 construct: Hyphal wall protein 1 of C. albicans presented on the surface of S. cerevisiae; source: S. cerevisiae, overexpressed and surface-presented, on cells
T2 sequence: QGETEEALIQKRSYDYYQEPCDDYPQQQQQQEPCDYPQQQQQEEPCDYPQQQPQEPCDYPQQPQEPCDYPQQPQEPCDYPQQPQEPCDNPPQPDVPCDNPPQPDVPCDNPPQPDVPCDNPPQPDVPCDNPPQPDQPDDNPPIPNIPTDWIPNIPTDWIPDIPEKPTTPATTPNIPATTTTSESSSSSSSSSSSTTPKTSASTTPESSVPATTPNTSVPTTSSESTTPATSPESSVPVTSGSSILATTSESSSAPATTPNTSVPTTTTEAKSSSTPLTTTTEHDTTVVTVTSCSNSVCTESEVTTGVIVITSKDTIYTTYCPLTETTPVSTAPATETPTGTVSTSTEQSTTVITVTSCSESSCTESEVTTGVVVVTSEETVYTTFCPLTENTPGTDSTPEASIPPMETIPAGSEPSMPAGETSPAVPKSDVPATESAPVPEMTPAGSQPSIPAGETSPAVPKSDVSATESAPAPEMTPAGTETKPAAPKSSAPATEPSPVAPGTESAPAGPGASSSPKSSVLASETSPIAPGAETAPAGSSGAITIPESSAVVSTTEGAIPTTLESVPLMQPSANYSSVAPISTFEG

[3] = biological target: T3, Eap1 (epithelial adhesin protein 1) on S. cerevisiae cells (C. albicans, UniProt G1UBC2 19-632); assay: as above; conditions: one partner purified
T3 construct: Eap1 adhesin of C. albicans presented on the surface of S. cerevisiae; source: S. cerevisiae, overexpressed and surface-presented, on cells
T3 sequence: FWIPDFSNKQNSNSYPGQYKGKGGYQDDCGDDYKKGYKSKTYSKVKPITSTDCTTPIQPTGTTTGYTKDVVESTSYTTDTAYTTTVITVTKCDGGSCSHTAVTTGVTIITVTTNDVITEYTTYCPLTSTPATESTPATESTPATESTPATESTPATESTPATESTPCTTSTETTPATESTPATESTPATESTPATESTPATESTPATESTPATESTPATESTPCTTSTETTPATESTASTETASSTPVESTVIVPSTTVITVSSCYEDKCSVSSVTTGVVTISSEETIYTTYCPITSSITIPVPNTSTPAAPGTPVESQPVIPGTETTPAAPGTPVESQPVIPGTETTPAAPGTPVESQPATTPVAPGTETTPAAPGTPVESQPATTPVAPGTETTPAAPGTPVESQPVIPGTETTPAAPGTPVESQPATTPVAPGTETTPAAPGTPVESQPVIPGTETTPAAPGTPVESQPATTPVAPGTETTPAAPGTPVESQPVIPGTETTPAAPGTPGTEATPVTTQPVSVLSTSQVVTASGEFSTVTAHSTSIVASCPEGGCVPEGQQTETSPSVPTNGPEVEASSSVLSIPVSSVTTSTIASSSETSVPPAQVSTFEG

[4] = biological target: the molecule itself; assay: SEC; Superdex 200 HR 10/50, calibrated with molecular mass standards, 0.5 mL/min; buffer 20 mM Tris-HCl pH 6.7 (methods) or 50 mM NaH2PO4, 150 mM NaCl pH 7.0

B1: recombinant Candida albicans glyceraldehyde 3-phosphate dehydrogenase (enzyme, C. albicans, UniProt Q5ADM7 1-335, looked up)
chain: MAIKIGINGFGRIGRLVLRVALGRKDIEVVAVNDPFIAPDYAAYMFKYDSTHGRYKGEVTASGDDLVIDGHKIKVFQERDPANIPWGKSGVDYVIESTGVFTKLEGAQKHIDAGAKKVIITAPSADAPMFVVGVNEDKYTPDLKIISNASCTTNCLAPLAKVVNDTFGIEEGLMTTVHSITATQKTVDGPSHKDWRGGRTASGNIIPSSTGAAKAVGKVIPELNGKLTGMSLRVPTTDVSVVDLTVRLKKAASYEEIAQAIKKASEGPLKGVLGYTEDAVVSTDFLGSSYSSIFDEKAGILLSPTFVKLISWYDNEYGYSTRVVDLLEHVAKASA
modifications: biotin (NHS-biotin) in the microplate and yeast-cell binding assays; Alexa Fluor 647 in flow cytometry
notes: no tag (pLATE11); By gel filtration predominantly a tetramer, with marked proportions of dimers and monomers; The forward primer carries ATGATG (the vector adapter's ATG and the gene's own), so an extra N-terminal Met may be present; also called CaGAPDH; GAPDH; source: E. coli Rosetta 2 (DE3), pLATE11, purified (ammonium sulfate fractionation, ResourceQ)
Work on B1 yielded a Kd [1] of 95.9 nM, a Kd [2] of 715 nM and a Kd [3] of 1250 nM. The “stoichiometry N” value [4] was 4 and 2.

Source: publication PMC10815899, “Glyceraldehyde 3-Phosphate Dehydrogenase on the Surface of Candida albicans and Nakaseomyces glabratus Cells—A Moonlighting Protein That Binds Human Vitronectin and Plasminogen and Can Adsorb to Pathogenic Fungal Cells via Major Adhesins Als3 and Epa6” (International Journal of Molecular Sciences, 2024)
